In patent publication US20230348575A1:
Where two headings read alike, the source gives them in different places.

How the values were obtained:
[1] = biological target: RSV F peptide 51-66 presented to CD4+ T cells of BALB/c mice (RSV, A2 strain)
[2] = biological target: RSV F peptides F85-93 and F249-258 presented to CD8+ T cells of BALB/c mice (RSV, A2 strain)
[3] = biological target: RSV F peptide 51-66 presented to CD4+ T cells of BALB/c mice (RSV, A2 strain); remark: listed apart in the source
[4] = biological target: RSV F peptides F85-93 and F249-258 presented to CD8+ T cells of BALB/c mice (RSV, A2 strain); remark: listed apart in the source

Substance: Splenic T cells of BALB/c mice vaccinated with A317 RNA (10 ug) with electroporation, day 49 (Example 7B, 10-1001) (cells without a defined receptor)
- CD4+ CD8- splenic T cells: % cytokine-positive (TNFa+), intracellular cytokine staining [1]: 0.05%
- CD8+ CD4- splenic T cells: % cytokine-positive (IFNg+), intracellular cytokine staining [2]: 0.85%

Substance: Splenic T cells of BALB/c mice vaccinated with A317 RNA formulated with CNE17, day 49 (Example 7B, 10-1001) (cells without a defined receptor)
- CD4+ CD8- splenic T cells: % cytokine-positive (TNFa+), intracellular cytokine staining, 1 ug [1]: 0.05%
- CD8+ CD4- splenic T cells: % cytokine-positive (IFNg+), intracellular cytokine staining, 1 ug [2]: 1.25%

Substance: Splenic T cells of BALB/c mice vaccinated with A317 RNA in liposomes RV01(01), day 49 (Example 7B, 10-1001) (cells without a defined receptor)
- CD4+ CD8- splenic T cells: % cytokine-positive (TNFa+), intracellular cytokine staining, 1 ug [1]: 0.09%
- CD8+ CD4- splenic T cells: % cytokine-positive (IFNg+), intracellular cytokine staining, 1 ug [2]: 3.69%

Substance: Splenic T cells of BALB/c mice vaccinated with A317 RNA in liposomes RV01(01), day 49 (Example 7C, 10-1018) (cells without a defined receptor)
- CD4+ CD8- splenic T cells: % cytokine-positive (TNFa+), intracellular cytokine staining, 1 ug [3]: 0.09%
- CD8+ CD4- splenic T cells: % cytokine-positive (IFNg+), intracellular cytokine staining, 10 ug [4]: 3.32%

Substance: Splenic T cells of BALB/c mice vaccinated with VRPs expressing RSV-F (1E6 IU), day 49 (Example 7B, 10-1001) (cells without a defined receptor)
- CD4+ CD8- splenic T cells: % cytokine-positive (TNFa+), intracellular cytokine staining [1]: 0.1%
- CD8+ CD4- splenic T cells: % cytokine-positive (IFNg+), intracellular cytokine staining [2]: 3.48%

Substance: Splenic T cells of BALB/c mice vaccinated with VRPs expressing RSV-F (1E6 IU), day 49 (Example 7C, 10-1018) (cells without a defined receptor)
- CD4+ CD8- splenic T cells: % cytokine-positive (TNFa+), intracellular cytokine staining [3]: 0.07%
- CD8+ CD4- splenic T cells: % cytokine-positive (IFNg+), intracellular cytokine staining [4]: 2.45%

Substance: Splenic T cells of BALB/c mice vaccinated with naked A317 RNA (1 ug), day 49 (Example 7B, 10-1001) (cells without a defined receptor)
- CD4+ CD8- splenic T cells: % cytokine-positive (TNFa+), intracellular cytokine staining [1]: 0.03%
- CD8+ CD4- splenic T cells: % cytokine-positive (IFNg+), intracellular cytokine staining [2]: 0.74%

Substance: Splenic T cells of BALB/c mice vaccinated with naked A317 RNA, day 49 (Example 7C, 10-1018) (cells without a defined receptor)
- CD4+ CD8- splenic T cells: % cytokine-positive (TNFa+), intracellular cytokine staining, 1 ug [3]: 0.03%
- CD8+ CD4- splenic T cells: % cytokine-positive (IFNg+), intracellular cytokine staining, 1 ug [4]: 1.68%

Substance: Splenic T cells of unvaccinated BALB/c mice, day 49 (Example 7B, 10-1001) (cells without a defined receptor)
- CD4+ CD8- splenic T cells: % cytokine-positive (TNFa+), intracellular cytokine staining [1]: 0%
- CD8+ CD4- splenic T cells: % cytokine-positive (IFNg+), intracellular cytokine staining [2]: 0.01%

Substance: Splenic T cells of unvaccinated BALB/c mice, day 49 (Example 7C, 10-1018) (cells without a defined receptor)
- CD4+ CD8- splenic T cells: % cytokine-positive (TNFa+), intracellular cytokine staining [3]: 0.01%
- CD8+ CD4- splenic T cells: % cytokine-positive (IFNg+), intracellular cytokine staining [4]: 0.01%
